Experimental data: US20190367606A1 (CENTRE FOR DRUG RESEARCH AND DEVELOPMENT, published 2019)

Legend:
[1] = biological target: T1, human podocalyxin (human, UniProt O00592 23-558); test: cross competition FACS, MDA-MB-231 cells; row antibody unlabelled 25 ug/mL first; competitor (detected): B-mlgG1 5 ug/mL (control)
T1 construct: also called hPodo; hPodocalyxin
T1 sequence: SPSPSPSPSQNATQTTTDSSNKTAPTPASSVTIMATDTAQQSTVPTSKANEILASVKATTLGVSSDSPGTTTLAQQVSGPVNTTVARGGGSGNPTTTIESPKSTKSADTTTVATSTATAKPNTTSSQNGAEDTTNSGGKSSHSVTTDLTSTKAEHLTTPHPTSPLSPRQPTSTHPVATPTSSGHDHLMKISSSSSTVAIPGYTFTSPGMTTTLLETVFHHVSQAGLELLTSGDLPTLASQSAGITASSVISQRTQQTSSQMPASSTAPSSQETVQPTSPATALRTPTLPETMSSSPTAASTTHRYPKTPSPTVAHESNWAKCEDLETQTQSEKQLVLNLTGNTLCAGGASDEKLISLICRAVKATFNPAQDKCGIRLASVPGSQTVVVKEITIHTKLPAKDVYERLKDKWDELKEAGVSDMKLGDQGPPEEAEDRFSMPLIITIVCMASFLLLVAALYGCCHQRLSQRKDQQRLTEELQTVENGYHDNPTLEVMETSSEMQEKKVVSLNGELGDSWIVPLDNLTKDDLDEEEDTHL

[2] = biological target: T1, human podocalyxin; test: cross competition FACS, MDA-MB-231 cells; row antibody unlabelled 25 ug/mL first; competitor (detected): B-Ova 12 5 ug/mL (control)
[3] = biological target: T1, human podocalyxin; test: cross competition FACS, MDA-MB-231 cells; row antibody unlabelled 25 ug/mL first; competitor (detected): biotinylated Rb/Hu Podo83 5 ug/mL
[4] = biological target: T1, human podocalyxin; test: cross competition FACS, MDA-MB-231 cells; row antibody unlabelled 25 ug/mL first; competitor (detected): B-3G2.2 5 ug/mL
[5] = biological target: T1, human podocalyxin; test: flow cytometry, control antibody, OVCAR10 cells
[6] = biological target: T1, human podocalyxin; test: flow cytometry, control antibody, OVCAR3 cells
[7] = biological target: T1, human podocalyxin; test: flow cytometry, control antibody, MCF7 cells
[8] = biological target: T1, human podocalyxin; test: flow cytometry, control antibody, 293 HEK cells
[9] = biological target: T1, human podocalyxin; test: flow cytometry, control antibody, SKOV3 cells
[10] = biological target: T1, human podocalyxin; test: flow cytometry, control antibody, A172 cells
[11] = biological target: T1, human podocalyxin; test: flow cytometry, control antibody, MDA-MB-231 cells
[12] = biological target: T1, human podocalyxin; test: flow cytometry, control antibody, HUVEC cells
[13] = biological target: T1, human podocalyxin; test: flow cytometry, control antibody, CaOV3 cells
[14] = biological target: T1, human podocalyxin; test: flow cytometry, control antibody, T47-D cells
[15] = biological target: T1, human podocalyxin; test: flow cytometry, well H01 (left column, cell type not labelled: MDA-MB-231 or MDA-MB-231/hPodo); vertical gate at FL4-H about 10^3.2, cutting the right edge of the control population; the gate differs from that of the Ab-1 panels
[16] = biological target: T1, human podocalyxin; test: flow cytometry, well H03 (right column, cell type not labelled: MDA-MB-231 or MDA-MB-231/hPodo); vertical gate at FL4-H about 10^3.2; the gate differs from that of the Ab-1 panels
[17] = biological target: T1, human podocalyxin; test: cross competition FACS, MDA-MB-231 cells; row antibody (isotype control) unlabelled 25 ug/mL first; competitor (detected): B-Ova 12 5 ug/mL (control)
[18] = biological target: T1, human podocalyxin; test: cross competition FACS, MDA-MB-231 cells; row antibody (isotype control) unlabelled 25 ug/mL first; competitor (detected): biotinylated Rb/Hu Podo83 5 ug/mL
[19] = biological target: T1, human podocalyxin; test: cross competition FACS, MDA-MB-231 cells; row antibody (isotype control) unlabelled 25 ug/mL first; competitor (detected): B-3G2.2 5 ug/mL
[20] = biological target: T1, human podocalyxin; test: cross competition FACS, MDA-MB-231 cells; row antibody (isotype control) unlabelled 25 ug/mL first; competitor (detected): B-mlgG1 5 ug/mL (control)
[21] = biological target: T1, human podocalyxin; test: cross competition FACS, MDA-MB-231 cells; FACS Buffer row (no unlabelled antibody); B-mlgG1 5 ug/mL (control)
[22] = biological target: T1, human podocalyxin; test: flow cytometry, control, 2:15 (so in the source), hPodo/MDA-MB-231 transient transfectants
[23] = biological target: T1, human podocalyxin; test: flow cytometry, control, 1:125, hPodo/MDA-MB-231 transient transfectants
[24] = biological target: T1, human podocalyxin; test: flow cytometry, control, 1:5, MDA-MB-231 cells
[25] = biological target: T1, human podocalyxin; test: flow cytometry, control, Neat, MDA-MB-231 cells
[26] = biological target: T1, human podocalyxin; test: flow cytometry, control, 1:125, MDA-MB-231 cells
[27] = biological target: T1, human podocalyxin; test: flow cytometry, control, 2:15 (so in the source), MDA-MB-231 cells
[28] = biological target: T1, human podocalyxin; test: flow cytometry, control, Neat, hPodo/MDA-MB-231 transient transfectants
[29] = biological target: T1, human podocalyxin; test: flow cytometry, control, 1:5, hPodo/MDA-MB-231 transient transfectants

FACS signal of the biotinylated antibody named under assay [1]	FACS signal of the biotinylated antibody named under assay [2]	FACS signal of the biotinylated antibody named under assay [3]	FACS signal of the biotinylated antibody named under assay [4]	Live cell GeoMean FL (geometric mean fluorescence units) [5]	Live cell GeoMean FL (geometric mean fluorescence units) [6]	Live cell GeoMean FL (geometric mean fluorescence units) [7]	Live cell GeoMean FL (geometric mean fluorescence units) [8]	Live cell GeoMean FL (geometric mean fluorescence units) [10]	Live cell GeoMean FL (geometric mean fluorescence units) [11]	Live cell GeoMean FL (geometric mean fluorescence units) [12]	Live cell GeoMean FL (geometric mean fluorescence units) [13]	Live cell GeoMean FL (geometric mean fluorescence units) [14]	Substance	other results
431	476	127000	26900										MAB1658 (R&D Systems) (antibody)	
				618	708	1130	556	797	478	484	892	787	MsIgG2a (antibody)	Live cell GeoMean FL (geometric mean fluorescence units) [9]: 485
				653	629	657	446	644	477	489	767	667	Control Rb/HuIgG1 (antibody)	Q2-LR % of gated cells (FL4-H above the gate) [15]: 17.2%; Q2-LR % of gated cells (FL4-H above the gate) [16]: 3.5%
													mlgG1 (antibody)	FACS signal of the biotinylated antibody named under assay [17]: 458; FACS signal of the biotinylated antibody named under assay [18]: 124000; FACS signal of the biotinylated antibody named under assay [19]: 26600; FACS signal of the biotinylated antibody named under assay [20]: 414; FACS signal of the biotinylated antibody [21]: 419
													Rb IgG (antibody)	flow cytometry fluorescence (name not given) [22]: 617; flow cytometry fluorescence (name not given) [23]: 645; flow cytometry fluorescence (name not given) [24]: 467; flow cytometry fluorescence (name not given) [25]: 574; flow cytometry fluorescence (name not given) [26]: 431; flow cytometry fluorescence (name not given) [27]: 438; flow cytometry fluorescence (name not given) [28]: 762; flow cytometry fluorescence (name not given) [29]: 660
419	450	135000	26400										3D3 (Santa Cruz Biotechnology sc23904) (antibody)	
